Experimental data as given in paper PMC10485164, “Sequence-specific targeting of Caenorhabditis elegans C-Ala to the D-loop of tRNAAla”.

Experiments:
Ce-C-Alac K938A = target: T1, Ce-C-Alac K938A (Caenorhabditis elegans, UniProt O01541 757-968, K938A); assay: EMSA; 5 mM Mg2+; EMSA: 20 mM Hepes pH 7.5, 20 mM KCl, 5 mM MgCl2, 2 mM DTT, 10 min on ice, 0.1 uM ligand; 5% native PAGE in 0.5x TBE at 4 C; protein 0.125-32 uM; conditions: protein: recombinant; tags: His6 (C-terminal, pET21b); label: 5'-32P; tRNA cloverleaf
T1 sequence: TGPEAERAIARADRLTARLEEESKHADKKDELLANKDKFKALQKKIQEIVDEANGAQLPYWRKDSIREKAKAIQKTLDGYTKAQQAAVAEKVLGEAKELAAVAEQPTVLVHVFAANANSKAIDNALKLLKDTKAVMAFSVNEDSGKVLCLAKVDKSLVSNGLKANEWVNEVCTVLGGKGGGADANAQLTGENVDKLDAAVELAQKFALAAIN

Ce-C-Alac K934A = target: T2, Ce-C-Alac K934A (Caenorhabditis elegans, UniProt O01541 757-968, K934A); assay: as above; conditions: protein: recombinant; tags: His6 (C-terminal, pET21b); label: 5'-32P; tRNA cloverleaf
T2 sequence: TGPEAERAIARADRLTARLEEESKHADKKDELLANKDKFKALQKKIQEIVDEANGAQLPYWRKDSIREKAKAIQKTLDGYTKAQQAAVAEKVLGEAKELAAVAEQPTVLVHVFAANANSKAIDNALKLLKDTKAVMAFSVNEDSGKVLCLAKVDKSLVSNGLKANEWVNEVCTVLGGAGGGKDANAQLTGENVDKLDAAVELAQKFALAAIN

B1: CetRNAnAla (structured_RNA)
RNA: GGGGGUAUAGCUCAGUGGUAGAGCGCUCCCUUAGCAUGGGAGAGGGCUGGGGUUCAAUUCCCCAUACCUCCACCA
For B1, the binding signal (Ce-C-Alac K938A) was 3 fold lower affinity than WT Ce-C-Alac and the binding signal (Ce-C-Alac K934A) was 11 fold lower affinity than WT Ce-C-Alac.
